From US20230029307A1

Target: rhVEGF165 (R&D Systems, Cat #293-VE-010) (human) (UniProt P15692)
Experiment: cell-based or functional assay

Sequence of rhVEGF165 (R&D Systems, Cat #293-VE-010) (human) (P15692 other isoform, or with tags, fused parts or gaps limits assumed): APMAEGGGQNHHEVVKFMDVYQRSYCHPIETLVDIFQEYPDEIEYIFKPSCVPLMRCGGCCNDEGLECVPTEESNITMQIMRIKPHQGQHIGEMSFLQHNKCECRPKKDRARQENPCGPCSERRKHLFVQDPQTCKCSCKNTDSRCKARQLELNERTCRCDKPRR

Substance: Aflibercept (EYLEA) (from UniProt P17948 129-230; P35968 225-327) (Fc fusion)
- maximal % inhibition of VEGF-stimulated BCEC proliferation: < 80%
